# Laboratory results reported in patent publication US20050064507A1, “Determining kinase specificity” (priority 2003, published 2005).
# Experiments:
# PKC-delta = target: T1, PKC-delta (Homo sapiens, UniProt Q05655); test: In vitro kinase assay: peptide phosphorylation by PKC-delta; format: biochemical
# T1 construct: purchased Calbiochem
# In short: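 Biotin-Lys-dansyl-Lys-Pro-Pro-Gly-linked proteomic peptides (12–21-residue core) phosphorylated by PKC-delta in HEPES/Triton/CaCl2/MgCl2 buffer with phosphatidyl serine and PMA, 100 μM [γ-32P]ATP, 30° C., ~10 min, stoichiometry ≤5%; streptavidin-plate capture. Signal normalized as % of best peptide substrate.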
# PKC = test: In vitro phosphorylation by PKC (average of isoforms alpha, epsilon, delta, theta); format: biochemical; conditions: average over PKC-theta, -epsilon and -alpha at 10 and 1 uM peptide, relative to best substrate
# Protocol: The conditions of the kinase assay and the amount of active kinase used varied with the kinase and with the accuracy needed. For a typical experiment, 5-20 ng of kinase was used per well and each peptide pool was assayed in duplicate wells. Note that the absolute amount of kinase used was not usually a critical parameter, because the desired information related to specificity of the kinase not its absolute activity, and robustness of the assay depends on comparisons of the same amount of kinase on different peptides. The combination of kinase concentration and assay duration was modified to assure that the stoichiometry of peptide phosphorylation never exceeded 5%. The choice of kinase buffer depended on the kinase being analyzed. For studies of PKC, 100 mM HEPES, 0.05% Triton-X100, 1 mM CaCl2, 20 mM MgCl2, 0.2 mg/ml phosphatidyl serine (Avanti Polar Lipids), PMA 100 ng/ml was typically used. The lipid stock was prepared by transferring 3 mg phosphatidyl serine into iced mixture of 450 μl water plus 50 μl of 10% Triton-X100, sonicating 10 times on ice for 1 sec each.
# The kinase reaction mixture was assembled by sequential addition to a tube held on ice of: 5 μl peptide (100 μM for final concentration of 10 μM), 15 μl of kinase (typically 5 ng/well, in appropriate kinase buffer), 30 μl of ATP (1 uCi/well of ^32P-gamma ATP in a stock of 167 μM cold ATP in the kinase buffer; for final concentration for 100 μM ATP). The mixture was rapidly warmed to desired reaction temperature (30° C. for PKC) and incubated for the desired duration (usually 10 minutes). The kinase assay was terminated by transfer to 4° C. water batch, and rapid addition of an equal volume (50 μl) of stop solution [0.1M ATP+0.1M EDTA in water, pH 8].
# The peptides were then captured from the reaction mixture by transfer to a Reacti-Bind Streptavidin High Binding Capacity Coated Plates (HBC) (Pierce Biotechnology) as follows. The HBC plates were pre-rinsed three times with PBS/Tween PBS/Tween20 0.05% (PBS/Tween). Part of all of the reaction mixture was then transferred wells of a HBC plate pre-filled with 90 μl of phosphate-buffered saline (PBS); typically each aliquots of each phosphorylation reaction were transferred to duplicate HBC plates to assure accuracy by additional replication
# For kinase assays done at the standard peptide concentration of 10 μM, the peptide concentration in the reaction mixture becomes 5 μM after addition of the stop solution; consequently 10 μl of the reaction (50 pMoles of peptide) was transferred to the HBC plate. More generally, the amount of reaction mixture transferred was estimated to be about 50 pMoles of peptide. […] The HBC plates were incubated for 0.5 to 1.5 hr at room temperature for complete binding of biotinylated peptides to plate-bound streptavidin. The HBC plates were then washed extensively with PBS/Tween. Five washes were done routinely and additional wash steps were added if the wash solution removed from the plate had measurable radioactivity as detected using a Geiger counter. This step is essential to obtaining a good the signal to noise ratio because the fraction of radioactivity incorporated in the peptides was a tiny fraction of the total in the reaction mixture. The wells were air-dried. A volume of 40-50 μl of microScint-20 (Packard Instruments) was added to each well. The plates were covered with stick-on film sheet. Radioactive emissions were measured in a TopCount NXT Microplate Scintillation and Luminescence Counter (Packard Instruments). Typically samples were counted for 5 minutes (or more) to improve the signal to noise ratio when counts were low.
# Many peptides that are good substrates for PKC enzymes were identified using the methods of the invention. For example, Tables 4 and 5 provide a listing of peptides identified as potentially useful kinase substrates. […]
# T1 sequence (Q05655 whole entry): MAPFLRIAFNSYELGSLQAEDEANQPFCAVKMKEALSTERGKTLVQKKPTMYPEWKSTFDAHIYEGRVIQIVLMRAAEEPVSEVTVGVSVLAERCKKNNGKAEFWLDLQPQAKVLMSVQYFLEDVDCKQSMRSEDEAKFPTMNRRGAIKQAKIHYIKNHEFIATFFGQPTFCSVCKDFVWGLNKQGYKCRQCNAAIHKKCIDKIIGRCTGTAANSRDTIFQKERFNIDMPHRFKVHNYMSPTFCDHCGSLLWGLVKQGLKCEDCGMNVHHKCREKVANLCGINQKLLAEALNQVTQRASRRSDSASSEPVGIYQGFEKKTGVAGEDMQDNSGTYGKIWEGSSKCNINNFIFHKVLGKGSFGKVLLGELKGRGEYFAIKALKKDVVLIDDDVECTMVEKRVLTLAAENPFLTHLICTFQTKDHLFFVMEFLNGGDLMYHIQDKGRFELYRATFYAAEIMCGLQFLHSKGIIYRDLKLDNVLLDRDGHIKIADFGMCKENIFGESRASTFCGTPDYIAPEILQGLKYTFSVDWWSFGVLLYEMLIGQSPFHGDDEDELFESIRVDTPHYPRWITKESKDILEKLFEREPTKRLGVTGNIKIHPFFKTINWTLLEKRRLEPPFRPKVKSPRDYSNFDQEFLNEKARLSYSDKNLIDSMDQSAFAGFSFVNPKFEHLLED
Substance,phosphorylation by PKC-delta (PKC-delta; peptide concentration 1 uM),phosphorylation by PKC-delta (PKC-delta; peptide concentration 10 uM),"average (phosphorylation by PKC-theta, -delta, -epsilon, -alpha) (PKC)"
129 (VQRHRSMRKTFARYLSFRRD) [compound 129],32,14,40
130 (EYLERRASRRRAV) [compound 130],46,20,39
131 (WKGKRRSKARKKRK) [compound 131],38,29,38
132 (GFLNEPLSSKSQRRKSLKLK) [compound 132],41,47,38
133 (LEKRGMLGKRPRRKSSRRKK) [compound 133],46,52,37
134 (RSRSRSRSKSKDKRKSRKRS) [compound 134],44,16,34
135 (KKKFRTPSFLKKSKK) [compound 135],40,25,33
136 (RARRDSLKKIEIW) [compound 136],41,23,32
137 (PSKSPSKKKKKFRTPSFLKK) [compound 137],38,16,31
138 (EYLERRASRRRAV) [compound 138],49,28,31
139 (RPTPGDGEKRSRIKKSKKRK) [compound 139],31,24,30
140 (TELEGGFSRQRKRKLSFRRR) [compound 140],44,49,30
141 (VTDSQKRREILSRRPSYRKI) [compound 141],43,21,29
142 (ERHVAQKKSRLRRRASQLKI) [compound 142],30,36,28
143 (VRYTPYTISPYNRKGSFRKQ) [compound 143],33,32,28
144 (LSSMFGTLPRKSRKGSVRKQ) [compound 144],35,28,28
145 (ISDFGLAKKLAVGRHSFSRR) [compound 145],34,23,27

Substance,phosphorylation by PKC-delta (PKC-delta; peptide concentration 1 uM),phosphorylation by PKC-delta (PKC-delta; peptide concentration 10 uM),"average (phosphorylation by PKC-theta, -delta, -epsilon, -alpha) (PKC)"
146 (QAQRQIKRGAPPRRSSIRNA) [compound 146],33,14,27
147 (RDIRQSPKRGFLRSASLGRR) [compound 147],27,13,26
154 (KKFFTQGWAGWRKKTSFRKP) [compound 154],26,14,22
155 (RWDKRRWRKIPKRPGSVHRT) [compound 155],30,23,21
156 (SAQITIPKDGQKRKKSLRKK) [compound 156],29,31,20
157 (PSPSNETPKKKKKRFSFKKS) [compound 157],27,35,20
158 (VQMTWSYPDEKNKRASVRRR) [compound 158],18,33,19
159 (LYARLARAYRRSQRASFKRA) [compound 159],15,12,19
160 (PFEVVWYKDKRQLRSSKKYK) [compound 160],25,31,18
161 (KYKAFIRIPIPTRRHTFRRQ) [compound 161],22,14,18
162 (KKKFSFKKPFKLSGLSFKRN) [compound 162],21,13,17
163 (PPRTPGWHQLQPRRVSFRGE) [compound 163],13,21,16
164 (TEGKMARVAWKGKRRSKARK) [compound 164],18,26,16
165 (TEEKSKKRKKKHRKNSRKHK) [compound 165],25,19,16
166 (MAQIERGEARIQRRISIKKA) [compound 166],13,29,15
167 (GLPAPGEDKSIYRRGSRRWR) [compound 167],13,24,15
